# Tests used:
# [1] = system: excised bovine nasal tissue (MTA, MTP, ITP regions); assay: Nanoparticle transport and uptake across excised bovine nasal tissue (Ussing chambers); type: in vitro ADME; settings: for Remaining in Donor / Total / Washes: mass balance; for Tissue Uptake / Transport: mass balance after 4 hr transport; for decrease in transport on co-treatment with free ligand / decrease in uptake on co-treatment with free ligand: m:s
# Procedure: Transport studies were conducted in bovine nasal tissue. Bovine nasal tissue was obtained from freshly slaughtered cattle, and different regions (MTA, MTP, ITP) were prepared as described in Example 13. Nanoparticles coupled to deslorelin or transferring via aldehyde sulfate moieties were prepared as described in Example 3. The nanoparticle size was measured using a Zeta Plus Analyzer (Brookhaven Instruments Limited, UK). Particle size was analyzed before and after ligand conjugation in deionized filtered water.
# The tissues were exposed to 5 ml of assay buffer with either peptide conjugated or plain nanoparticles on the donor side (mucosal or serosal surface). Assay buffer (5 ml) without particles was exposed to the receiver side (serosal or mucosal surface). The buffers used were pre-equilibrated to 37° C. or 4° C. The donor nanoparticle concentration was 20 or 100 μg/ml. […] Donor samples were collected at the beginning (replenished with particle stock suspension) and at the end of the experiment. The samples were collected in polypropylene tubes, capped, and stored at 4° C. until analysis. The aperture/tissue area exposed to the bathing fluids in this set up was 1.78 cm^2.
# Nanoparticle Uptake: At the end of 4 hr in the above transport studies, the tissues exposed (1.78 cm^2) to the nanoparticle suspension were cut and washed thrice using 1 ml of assay buffer at pH 5. After the washes, the tissues were weighed and placed in 1 ml of 2% Triton-X 100™ and homogenized until a tissue suspension was formed using the Tissue Tearor™. The tissue debris was separated by centrifugation at 3000 rpm (Marathon Micro A, Fisher Scientific, Pittsburgh, Pa.) for 10 min. The supernatant was collected to analyze the amount of nanoparticles taken up by the tissue. Standard curves were prepared by homogenizing serial dilution of the stock solution with approximately 100-150 mg of nasal tissue. The homogenates were then centrifuged and the supernatant was analyzed.
# Nanoparticle Transport and Uptake: Competition with Free Ligand: Similar to the transport and uptake studies mentioned above, the competition study was carried out using the modified Ussing chambers. The tissues were exposed to 20 μg/ml of nanoparticles conjugated with deslorelin or transferrin in the presence of 10 times (200 μg/ml) of plain deslorelin or transferrin in the donor chamber. Receiver samples were obtained at various intervals up to 4 hr and replaced with pre-warmed assay buffer. At the end of 4 hr the tissue region exposed to the nanoparticle preparation was cut and washed in assay buffer at pH 5. The tissues were then homogenized and centrifuged. The supernatants were analyzed to determine nanoparticle uptake.
# Nanoparticle Quantification: The samples obtained from the transport studies, washes and supernatants of tissue homogenates were analyzed for nanoparticle content using a spectrofluorometer (Cary Eclipse, Varian Inc.). The excitation wavelength of 505 nm and an emission wavelength of 515 nm were used. Bandwidths of 3 or 5 nm were used for the sample analysis after dilution as required. The procedure used for extraction of the nanoparticles was performed as mentioned in the methods section under nanoparticle uptake. […] Briefly, similar amounts of tissues (weighed to match weight of tissues obtained from the transport experiment) were spiked with serially diluted stock nanoparticle suspensions (0.3 μg/ml-100 μg/ml) prepared in 2% Triton-X 100™. The tissues were homogenized, centrifuged and the supernatant obtained was used for standards. Standard curves were also prepared in assay buffer and acid wash buffer.
# ARPE-19 cells = assay: Nanoparticle uptake by human retinal pigment epithelial cells; type: cell-based; settings: 1 ml of 100 μg/ml suspension in serum free medium
# Procedure: A study was performed to examine the effect of targeting moieties on biodegradable and non-biodegradable carrier particles and their uptake in ocular cells. The biodegradable and non-biodegradable targeted carrier particles of the preceding Example were used. Uptake of nanoparticles by human retinal pigment epithelial cells (ARPE-19 cell line) was quantified by measuring fluorescence in cell lysate obtained after incubation of targeted or untargeted (unconjugated) nanoparticles with ARPE-19 cell monolayers.
# ARPE-19 cells were obtained from American Type Culture Collection (ATCC, Manassas, Va.). The cells were maintained in culture according to supplier's recommendation. All studies were conducted using confluent cells of passages 20-30. Dulbecco's modified Eagle's medium (DMEM-F/12), fetal bovine serum, penicillin-streptomycin and L-glutamine were obtained from Gibco-BRL (Invitrogen Inc., Carlsbad, Calif.). Cell culture flasks (T-75 cm^2) and plates were purchased from Corning Inc., (Corning, N.Y.). To investigate the uptake of particles, ARPE-19 cells between 20-30 passages were cultured in 24-well plates until confluency. […] Fluorescence intensity of the cell lysates was determined at an excitation and emission wavelength of 505 and 515 nm, respectively, for FluoSpheres®. […]
# [2] = 20 μg/ml nanoparticles + 200 μg/ml free ligand, ITP
# [3] = 20 μg/ml nanoparticles + 200 μg/ml free ligand, MTP
substance,measurement,setting,value
Transferrin-AS: transferrin-aldehyde sulphate-conjugated polystyrene nanoparticles,transport in the s:m direction greater than in the m:s direction,[1]; ITP,10%
same,Remaining in Donor,[1]; ITP,94.51 ± 1.10%
same,Total,[1]; ITP,98.62 ± 1.13%
same,Washes,[1]; ITP,0.75 ± 0.10%
same,Tissue Uptake,[1]; ITP,3.98 ± 0.10%
same,Transport,[1]; ITP,1.97 ± 0.05%
same,transport in the s:m direction greater than in the m:s direction,[1]; MTA,16%
same,"uptake, times higher than plain nanoparticles",[1]; MTA,3.6 times
same,"percent transport as well as uptake, times higher than deslorelin-nanoparticles","[1]; MTA, MTP and ITP regions",1.3-1.4 times
same,Remaining in Donor,[1]; MTA,93.06 ± 0.99%
same,Total,[1]; MTA,98.77 ± 0.95%
same,Washes,[1]; MTA,0.50 ± 0.13%
same,Tissue Uptake,[1]; MTA,2.13 ± 0.13%
same,Transport,[1]; MTA,1.13 ± 0.07%
same,transport in the s:m direction greater than in the m:s direction,[1]; MTP,17%
same,"uptake, times higher than plain nanoparticles",[1]; MTP,2.9 times
same,Remaining in Donor,[1]; MTP,92.14 ± 2.20%
same,Total,[1]; MTP,98.99 ± 0.52%
same,Washes,[1]; MTP,0.60 ± 0.11%
same,Tissue Uptake,[1]; MTP,2.99 ± 0.14%
same,Transport,[1]; MTP,1.52 ± 0.11%
same,decrease in uptake at 4° C. compared to 37° C.,"[1]; m:s direction, ITP",77%
same,"percent transport, times higher than plain nanoparticles","[1]; m:s direction, ITP",~1.8 times
same,decrease in uptake at 4° C. compared to 37° C.,"[1]; m:s direction, MTA",58%
same,"percent transport, times higher than plain nanoparticles","[1]; m:s direction, MTA",approximately 3.3 times
same,decrease in uptake at 4° C. compared to 37° C.,"[1]; m:s direction, MTP",70%
same,"percent transport, times higher than plain nanoparticles","[1]; m:s direction, MTP",~2.1 times
same,decrease in transport on co-treatment with free ligand,[1]; [2],25%
same,decrease in uptake on co-treatment with free ligand,[1]; [2],44%
same,decrease in uptake on co-treatment with free ligand,"[1]; 20 μg/ml nanoparticles + 200 μg/ml free ligand, MTA",43%
same,decrease in transport on co-treatment with free ligand,[1]; [3],33%
same,decrease in uptake on co-treatment with free ligand,[1]; [3],45%
same,decrease in transport on co-treatment with free ligand,"[1]; 20 μg/ml nanoparticles + 200 μg/ml plain deslorelin or transferrin, MTA",22%
same,decrease in uptake at 4° C. compared to 37° C.,"[1]; s:m direction, ITP",80%
same,decrease in uptake at 4° C. compared to 37° C.,"[1]; s:m direction, MTA",65%
same,decrease in uptake at 4° C. compared to 37° C.,"[1]; s:m direction, MTP",75%
same,percentage uptake at 3 h by ARPE-19 cells,ARPE-19 cells,12.2±0.26%

# — patent US8821943B2, “Methods and compositions for targeted delivery of therapeutic agents” (Board of Regents of the University of Nebraska, priority 2006, dated 2014)
